Measured values reported in the PETadex activity labels (doi:10.1016/j.jhazmat.2023.131574).

B1: unnamed (protein)
chain: MSNGYSACPAPYDHRGMRKHASLLAALPVLLAACGTTTSTLTTPAVTPQTLSGAATNPYERGPAPTTALLEAARGPYATASTTVPRSSVSDFGGATIYYPTSTADGTFGGVAISPGYTGTQASVAWLGPRLASHGFVVIVIDTLSRYDYPSSRGDQLRAALRYLTTSSAVRTRVDATRLAVMGHSMGGGGALEAAKDNPALKAAIPLTPWNTDKSWPELTTPTLIFGAQNDSVAPVSSHAIPFYTSLASTLPKAYLELRGASHGAPTSTNTTIAKYAVAWLKRFEDADRRYDPFLCPTPAVSTLLSDARSTCPFN
B2: unnamed (protein)
chain: MDGVLWRVRTAALMAALLALAAWALVWASPSVEAQSNPYQRGPNPTRSALTADGPFSVATYTVSRLSVSGFGGGVIYYPTGTSLTFGGIAMSPGYTADASSLAWLGRRLASHGFVVLVINTNSRFDGPDSRASQLSAALNYLRTSSPSAVRARLDANRLAVAGHSMGGGGTLRIAEQNPSLKAAVPLTPWHTDKTFNTSVPVLIVGAEADTVAPVSQHAIPFYQNLPSTTPKVYVELCNASHIAPNSNNAAISVYTISWMKLWVDNDTRYRQFLCNVNDPALCDFRTNNRHCQ
B3: unnamed (protein)
chain: MSNGYSACPAPYDHRGMRKHASLLAALPVLLAACGTTTSTLTTPAVTPQTLSGAATNPYERGPAPTTALLEAARGPYATASTTVPRSSVSDFGGATIYYPTSTADGTFGGVAISPGYTGTQASVAWLGPRLASHGFVVIVIDTLSRYDYPSSRGDQLRAALRYLTTSSAVRTRVDATRLAVMGHSMGGGGALEAAKDNPALKAAIPLTPWNTDKSWPELTTPTLIFGAQNDSVAPVSSHAIPFYTSLASTLPKAYLELRGASHGAPTSTNTTIAKYAVAWLKRFDADARRYDPFLCPTPAVSTLLSDARSTCPFN

Each protein was assayed on p-NP-C10 (assay: not given). Conditions: 50 °C.

Q: How did the Km turn out when B1 was run?
A: 930 µM

Q: And the kcat?
A: 2.47 s⁻¹

Q: And the kcat/Km?
A: 2660 M⁻¹ s⁻¹

The proteins below were run on p-NP-C2 (assay: not given). Conditions: 50 °C.

Q: B1 was tested. Which Km did it give?
A: 900 µM

Q: What about the kcat of the same protein?
A: 27.5 s⁻¹

Q: And the kcat/Km?
A: 30600 M⁻¹ s⁻¹

The proteins below were run on p-NP-C4 (assay: not given). Conditions: 50 °C.

Q: B1 was tested. Which Km did it give?
A: 190 µM

Q: And the kcat?
A: 30.8 s⁻¹

Q: And the kcat/Km?
A: 162000 M⁻¹ s⁻¹

These proteins were tested on p-NP-C8 (assay: not given). Conditions: 50 °C.

Q: B1 was tested. Which Km did it give?
A: 1290 µM

Q: And the kcat?
A: 11.3 s⁻¹

Q: And the kcat/Km?
A: 8780 M⁻¹ s⁻¹

Each protein was assayed on p-NP-C10 (assay: not given). Conditions: 60 °C.

Q: Which Km does the source give for B2 here?
A: 2680 µM

Q: What about the kcat of the same protein?
A: 8.11 s⁻¹

Q: And the kcat/Km?
A: 3030 M⁻¹ s⁻¹

These proteins were tested on p-NP-C2 (assay: not given). Conditions: 60 °C.

Q: For B2, which Km is on record?
A: 7310 µM

Q: What about the kcat of the same protein?
A: 159 s⁻¹

Q: And the kcat/Km?
A: 21800 M⁻¹ s⁻¹

What follows are proteins tested on p-NP-C4 (assay: not given). Conditions: 60 °C.

Q: What does the source list for B2?
A: Km: 760 µM; kcat: 137 s⁻¹; kcat/Km: 180000 M⁻¹ s⁻¹

Each protein was assayed on p-NP-C8 (assay: not given). Conditions: 60 °C.

Q: For B2, which Km is on record?
A: 7440 µM

Q: And the kcat?
A: 107 s⁻¹

Q: What about the kcat/Km of the same protein?
A: 14300 M⁻¹ s⁻¹

These proteins were tested on PCL; PBS; PHA; PLA; PUR (assay: Proxy for plastic degradation [Weight/mass loss]). Conditions: pH 7; 24 h.

Q: B3 was tested. Which “Proxy for plastic degradation” value did it give?
A: 79%
